The values below come from US20140073768A1.

The target of test [1] is extracellular region of human V158 FcγRIIIa, C-terminal 6xHis-tag and GST-tag (human) (UniProt P08637). In words: SPR.
Test [2] concerns the target FcγRIIIa on human PBMCs expressing heterozygous V158/F158 FcγRIIIa (human) (UniProt P08637). Kind of test: cell-based or functional assay.
In test [3] the target is extracellular region of human F158 FcγRIIIa, C-terminal 6xHis-tag and GST-tag (human) (UniProt P08637). Kind of test: SPR, receptor immobilized, antibody flowed over.
The target of test [4] is extracellular region of human V158 FcγRIIIa, C-terminal 6xHis-tag and GST-tag (human) (UniProt P08637). Kind of test: SPR, receptor immobilized, antibody flowed over.

In test [1], alemtuzumab T260H (antibody) came in with a Fold WT of 1.86 fold.
With alemtuzumab S239D/I332E (antibody), in test [2], the ADCC EC50, DoHH-2 targets, PBMCs is 3 ng/mL and the ADCC log(EC50), DoHH-2 targets, PBMCs stood at 0.49.
Take alemtuzumab E283H (antibody): the Fold WT in test [1] is 2.31 fold.
The same measure, in the same setting: in the case of alemtuzumab R255Y (antibody) it was 1.41 fold; in that of alemtuzumab S304T (antibody), 12.8 fold.
On the same count and under the same terms, in the case of alemtuzumab K246Y (antibody) it was 7.07 fold; in that of alemtuzumab E258Y (antibody), 1.77 fold.
On the same count and under the same terms, the result for alemtuzumab H268D (antibody) reads 5.66 fold; that for alemtuzumab E283L (antibody), 2.56 fold.
Consider alemtuzumab, wild type (antibody), for which the figures for the dissociation constant (Kd) in test [3] and in test [4] were 0.73 µM and 0.068 µM, respectively.
For alemtuzumab E272H (antibody), the Fold WT in test [1] turned out to be 384 fold.
Same read-out and setting: the result for alemtuzumab S267E (antibody) reads 2.62 fold.
In test [2], alemtuzumab V264I/I332E (antibody) gave an ADCC EC50, DoHH-2 targets, PBMCs of 4 ng/mL and an ADCC log(EC50), DoHH-2 targets, PBMCs of 0.6.
Substance alemtuzumab K246H (antibody) registered a Fold WT in test [1] of 22.4 fold.
Same read-out and setting: the result for alemtuzumab V284E (antibody) reads 1.51 fold; that for alemtuzumab E258H (antibody), 5.5 fold.
In test [1], alemtuzumab E272R (antibody) had a Fold WT of 1.38 fold.
